Experimental data taken from article PMC3295232 (Journal of the American Chemical Society, 2012).
Where two headings read alike, the source gives them in different places. Marks after values point to notes of the source that are not given here.

B1: E51D: variant at the indicated position of YPDC (protein, UniProt P06169 2-563, looked up, variant E51D)
Pyruvate decarboxylase …: SEITLGKYLFERLKQVNVNTVFGLPGDFNLSLLDKIYEVEGMRWAGNANDLNAAYAADGYARIKGMSCIITTFGVGELSALNGIAGSYAEHVGVLHVVGVPSISAQAKQLLLHHTLGNGDFTVFHRMSANISETTAMITDIATAPAEIDRCIRTTYVTQRPVYLGLPANLVDLNVPAKLLQTPIDMSLKPNDAESEKEVIDTILALVKDAKNPVILADACCSRHDVKAETKKLIDLTQFPAFVTPMGKGSIDEQHPRYGGVYVGTLSKPEVKEAVESADLILSVGALLSDFNTGSFSYSYKTKNIVEFHSDHMKIRNATFPGVQMKFVLQKLLTTIADAAKGYKPVAVPARTPANAAVPASTPLKQEWMWNQLGNFLQEGDVVIAETGTSAFGINQTTFPNNTYGISQVLWGSIGFTTGATLGAAFAAEEIDPKKRVILFIGDGSLQLTVQEISTMIRWGLKPYLFVLNNDGYTIEKLIHGPKAQYNEIQGWDHLSLLPTFGAKDYETHRVATTGEWDKLTQDKSFNDNSKIRMIEIMLPVFDAPQNLVEQAKLTAATNAKQ
B2: E51N: variant at the indicated position of YPDC (protein, UniProt P06169 2-563, looked up, variant E51N)
Pyruvate decarboxylase …: SEITLGKYLFERLKQVNVNTVFGLPGDFNLSLLDKIYEVEGMRWAGNANNLNAAYAADGYARIKGMSCIITTFGVGELSALNGIAGSYAEHVGVLHVVGVPSISAQAKQLLLHHTLGNGDFTVFHRMSANISETTAMITDIATAPAEIDRCIRTTYVTQRPVYLGLPANLVDLNVPAKLLQTPIDMSLKPNDAESEKEVIDTILALVKDAKNPVILADACCSRHDVKAETKKLIDLTQFPAFVTPMGKGSIDEQHPRYGGVYVGTLSKPEVKEAVESADLILSVGALLSDFNTGSFSYSYKTKNIVEFHSDHMKIRNATFPGVQMKFVLQKLLTTIADAAKGYKPVAVPARTPANAAVPASTPLKQEWMWNQLGNFLQEGDVVIAETGTSAFGINQTTFPNNTYGISQVLWGSIGFTTGATLGAAFAAEEIDPKKRVILFIGDGSLQLTVQEISTMIRWGLKPYLFVLNNDGYTIEKLIHGPKAQYNEIQGWDHLSLLPTFGAKDYETHRVATTGEWDKLTQDKSFNDNSKIRMIEIMLPVFDAPQNLVEQAKLTAATNAKQ
B3: E91D: variant at the indicated position of YPDC (protein, UniProt P06169 2-563, looked up, variant E91D)
Pyruvate decarboxylase …: SEITLGKYLFERLKQVNVNTVFGLPGDFNLSLLDKIYEVEGMRWAGNANELNAAYAADGYARIKGMSCIITTFGVGELSALNGIAGSYADHVGVLHVVGVPSISAQAKQLLLHHTLGNGDFTVFHRMSANISETTAMITDIATAPAEIDRCIRTTYVTQRPVYLGLPANLVDLNVPAKLLQTPIDMSLKPNDAESEKEVIDTILALVKDAKNPVILADACCSRHDVKAETKKLIDLTQFPAFVTPMGKGSIDEQHPRYGGVYVGTLSKPEVKEAVESADLILSVGALLSDFNTGSFSYSYKTKNIVEFHSDHMKIRNATFPGVQMKFVLQKLLTTIADAAKGYKPVAVPARTPANAAVPASTPLKQEWMWNQLGNFLQEGDVVIAETGTSAFGINQTTFPNNTYGISQVLWGSIGFTTGATLGAAFAAEEIDPKKRVILFIGDGSLQLTVQEISTMIRWGLKPYLFVLNNDGYTIEKLIHGPKAQYNEIQGWDHLSLLPTFGAKDYETHRVATTGEWDKLTQDKSFNDNSKIRMIEIMLPVFDAPQNLVEQAKLTAATNAKQ
B4: E51Q: variant at the indicated position of YPDC (protein, UniProt P06169 2-563, looked up, variant E51Q)
Pyruvate decarboxylase …: SEITLGKYLFERLKQVNVNTVFGLPGDFNLSLLDKIYEVEGMRWAGNANQLNAAYAADGYARIKGMSCIITTFGVGELSALNGIAGSYAEHVGVLHVVGVPSISAQAKQLLLHHTLGNGDFTVFHRMSANISETTAMITDIATAPAEIDRCIRTTYVTQRPVYLGLPANLVDLNVPAKLLQTPIDMSLKPNDAESEKEVIDTILALVKDAKNPVILADACCSRHDVKAETKKLIDLTQFPAFVTPMGKGSIDEQHPRYGGVYVGTLSKPEVKEAVESADLILSVGALLSDFNTGSFSYSYKTKNIVEFHSDHMKIRNATFPGVQMKFVLQKLLTTIADAAKGYKPVAVPARTPANAAVPASTPLKQEWMWNQLGNFLQEGDVVIAETGTSAFGINQTTFPNNTYGISQVLWGSIGFTTGATLGAAFAAEEIDPKKRVILFIGDGSLQLTVQEISTMIRWGLKPYLFVLNNDGYTIEKLIHGPKAQYNEIQGWDHLSLLPTFGAKDYETHRVATTGEWDKLTQDKSFNDNSKIRMIEIMLPVFDAPQNLVEQAKLTAATNAKQ
B5: C221E/C222A: double-mutant of YPDC with a substitution at the neighboring Cys222; permanently activated form (protein, UniProt P06169 2-563, looked up, variant C221E C222A)
Pyruvate decarboxylase …: SEITLGKYLFERLKQVNVNTVFGLPGDFNLSLLDKIYEVEGMRWAGNANELNAAYAADGYARIKGMSCIITTFGVGELSALNGIAGSYAEHVGVLHVVGVPSISAQAKQLLLHHTLGNGDFTVFHRMSANISETTAMITDIATAPAEIDRCIRTTYVTQRPVYLGLPANLVDLNVPAKLLQTPIDMSLKPNDAESEKEVIDTILALVKDAKNPVILADAEASRHDVKAETKKLIDLTQFPAFVTPMGKGSIDEQHPRYGGVYVGTLSKPEVKEAVESADLILSVGALLSDFNTGSFSYSYKTKNIVEFHSDHMKIRNATFPGVQMKFVLQKLLTTIADAAKGYKPVAVPARTPANAAVPASTPLKQEWMWNQLGNFLQEGDVVIAETGTSAFGINQTTFPNNTYGISQVLWGSIGFTTGATLGAAFAAEEIDPKKRVILFIGDGSLQLTVQEISTMIRWGLKPYLFVLNNDGYTIEKLIHGPKAQYNEIQGWDHLSLLPTFGAKDYETHRVATTGEWDKLTQDKSFNDNSKIRMIEIMLPVFDAPQNLVEQAKLTAATNAKQ
B6: E51A: variant at the indicated position of YPDC (protein, UniProt P06169 2-563, looked up, variant E51A)
Pyruvate decarboxylase …: SEITLGKYLFERLKQVNVNTVFGLPGDFNLSLLDKIYEVEGMRWAGNANALNAAYAADGYARIKGMSCIITTFGVGELSALNGIAGSYAEHVGVLHVVGVPSISAQAKQLLLHHTLGNGDFTVFHRMSANISETTAMITDIATAPAEIDRCIRTTYVTQRPVYLGLPANLVDLNVPAKLLQTPIDMSLKPNDAESEKEVIDTILALVKDAKNPVILADACCSRHDVKAETKKLIDLTQFPAFVTPMGKGSIDEQHPRYGGVYVGTLSKPEVKEAVESADLILSVGALLSDFNTGSFSYSYKTKNIVEFHSDHMKIRNATFPGVQMKFVLQKLLTTIADAAKGYKPVAVPARTPANAAVPASTPLKQEWMWNQLGNFLQEGDVVIAETGTSAFGINQTTFPNNTYGISQVLWGSIGFTTGATLGAAFAAEEIDPKKRVILFIGDGSLQLTVQEISTMIRWGLKPYLFVLNNDGYTIEKLIHGPKAQYNEIQGWDHLSLLPTFGAKDYETHRVATTGEWDKLTQDKSFNDNSKIRMIEIMLPVFDAPQNLVEQAKLTAATNAKQ

Key:
[1] = tested on: yeast pyruvate decarboxylase (YPDC); experiment: YPDC assay coupled to alcohol dehydrogenase/NADH; assay type: biochemical, Saccharomyces cerevisiae; conditions: pyruvate as substrate; for kcat / subunit: per subunit; for kcat / subunit / S0.5: pH 6.0, 30 °C
[2] = tested on: yeast pyruvate decarboxylase (YPDC); conditions: cited from earlier work; for S0.5: pyruvate as substrate

Row | Molecule | kcat / subunit [1] | decrease in kcat as compared to YPDC [1] | S0.5 [1] | S0.5 [2] | reduction in activity compared to YPDC [2]
1 | B1 | 0.049 s⁻¹ | 1000 fold | 23.1 ± 1.3 mM |  | 
2 | B2 | 0.0024 s⁻¹ | 10,000 fold | 31.5 ± 12 mM |  | 
3 | B3 | 11 s⁻¹ |  |  | 1.79 ± 0.22 ^c mM | 
4 | B4 | 0.035 s⁻¹ |  | 14.9 ± 1.3 mM |  | 
5 | B5 | 18.2 s⁻¹ |  |  | 1.47 ± 0.04 ^d mM | 2–5 fold
6 | B6 | 0.0043 s⁻¹ | 10,000 fold | 0.72 ± 0.1 mM |  | 
